These results are taken from PMC9237525, “Solution Structure of Tubuliform Spidroin N-Terminal Domain and Implications for pH Dependent Dimerization” (Frontiers in Molecular Biosciences, 2022).

The target of series [1] is Argiope argentata TuSp NT E37Q E82Q (Argiope argentata). In words: SEC; Superdex 75 Increase 10/300 GL, 50 µl at 3 mg/ml, 20 mM NaOAc, 20 mM NaCl, pH 5.5.
Series [2] deals with Argiope argentata TuSp NT E37Q E82Q E85Q (Argiope argentata). Described as above.
In series [3] the target is Argiope argentata TuSp NT E37Q E82Q E85Q D130N (Argiope argentata). The description is as above.
Series [4] concerns the molecule itself. In words: 15N NMR relaxation (rotational correlation time); pH 5.5; T1 and T2 of backbone amides, 800 MHz; molecular weight estimated from the correlation time.

For orientation: stoichiometry N means a count of units in the complex or per binding partner.

In turn, “Argiope argentata TuSp NT E37Q E82Q (domain or fragment)” returned a stoichiometry N in series [1] of 2.
In turn, “Argiope argentata TuSp NT E37Q E82Q E85Q (domain or fragment)” displayed a stoichiometry N in series [2] of 2.
The molecule “Argiope argentata TuSp NT E37Q E82Q E85Q D130N (domain or fragment)” came in with a stoichiometry N in series [3] of 2.

B1: Argiope argentata tubuliform spidroin (TuSp 1) N-terminal domain, wild type (domain or fragment)
chain: AVTAVPSVFSSPNLASGFLQCLTFGIGNSPAFPTQEQQDLDAIAQVILNAVSTNTGATASARAQALSTALASSLTDLLIAESAESNYNNQLSELTGILSNCFIQTTGSDNPAFVSRIQSLISVLSQNTDVNIISTA
notes: Tubuliform spidroin 1 (TuSp 1) N-terminal domain, Argiope argentata; 136 residues (count printed for the A70E variant); Expressed from pET-32a-HisTrxHisNT; Intramolecular disulfide C22-C102; 15N- or 13C,15N-labelled for NMR; Calculated mass 14.1 kDa (monomer); also called TuSp NT; wt TuSp NT; not shown: His-Trx, N-terminal, cleaved
As for B1, the “stoichiometry N” value in series [4] is 2.
